Substitutions are numbered along the chain they refer to. Numbers in names are those of the source.
B1: ribose BP A234C JPW4039 (conjugate, UniProt P02925 26-296, looked up, variant A234C)
Ribose import binding protein …: KDTIALVVSTLNNPFFVSLKDGAQKEADKLGYNLVVLDSQNNPAKELANVQDLTVRGTKILLINPTDSDAVGNAVKMANQANIPVITLDRQATKGEVVSHIASDNVLGGKIAGDYIAKKAGEGAKVIELQGIAGTSAARERGEGFQQAVAAHKFNVLASQPADFDRIKGLNVMQNLLTAHPDVQAVFAQNDEMALGALRALQTAGKSDVMVVGFDGTPDGEKAVNDGKLAATICQLPDQIGAKGVETADKVLKGEKVQAKYPVDLKLVVKQ
modifications: JPW4039 dye conjugate
B2: ribose BP D165C JPW4045 (conjugate, UniProt P02925 26-296, looked up, variant D165C)
Ribose import binding protein …: B1 Ribose import binding protein … with D165C, C234A
modifications: JPW4045 label
B3: ribose BP L236C JPW4039 (conjugate, UniProt P02925 26-296, looked up, variant L236C)
Ribose import binding protein …: B1 Ribose import binding protein … with C234A, L236C
modifications: JPW4039 dye conjugate
B4: ribose BP L236C JPW4045 (conjugate, UniProt P02925 26-296, looked up, variant L236C)
Ribose import binding protein …: B1 Ribose import binding protein … with C234A, L236C
modifications: JPW4045 dye label
B5: ribose BP D165C JPW4042 (conjugate, UniProt P02925 26-296, looked up, variant D165C)
Ribose import binding protein …: B1 Ribose import binding protein … with D165C, C234A
modifications: JPW4042 dye conjugate
B6: ribose BP L236C JPW4042 (conjugate, UniProt P02925 26-296, looked up, variant L236C)
Ribose import binding protein …: B1 Ribose import binding protein … with C234A, L236C
modifications: JPW4042 dye conjugate
B7: ribose BP A234C NBD (conjugate, UniProt P02925 26-296, looked up, variant A234C)
Ribose import binding protein …: B1 Ribose import binding protein …
modifications: NBD conjugate
B8: ribose BP D165C Acrylodan (conjugate, UniProt P02925 26-296, looked up, variant D165C)
Ribose import binding protein …: B1 Ribose import binding protein … with D165C, C234A
modifications: acrylodan conjugate
B9: ribose BP A234C JPW4042 (conjugate, UniProt P02925 26-296, looked up, variant A234C)
Ribose import binding protein …: B1 Ribose import binding protein …
modifications: JPW4042 dye conjugate
B10: ribose BP E192C Fluorescein (conjugate, UniProt P02925 26-296, looked up, variant E192C)
Ribose import binding protein …: B1 Ribose import binding protein … with E192C, C234A
modifications: fluorescein label
B11: ribose BP L236C Fluorescein (conjugate, UniProt P02925 26-296, looked up, variant L236C)
Ribose import binding protein …: B1 Ribose import binding protein … with C234A, L236C
modifications: fluorescein conjugate
B12: ribose BP D165C JPW4039 (conjugate, UniProt P02925 26-296, looked up, variant D165C)
Ribose import binding protein …: B1 Ribose import binding protein … with D165C, C234A
modifications: JPW4039 dye conjugate
B13: ribose BP A234C Acrylodan (conjugate, UniProt P02925 26-296, looked up, variant A234C)
Ribose import binding protein …: B1 Ribose import binding protein …
modifications: acrylodan label
B14: ribose BP E192C JPW4039 (conjugate, UniProt P02925 26-296, looked up, variant E192C)
Ribose import binding protein …: B1 Ribose import binding protein … with E192C, C234A
modifications: JPW4039 dye label
B15: ribose BP E192C NBD (conjugate, UniProt P02925 26-296, looked up, variant E192C)
Ribose import binding protein …: B1 Ribose import binding protein … with E192C, C234A
modifications: NBD dye conjugate
B16: phosphate BP A225C JPW4039 (conjugate, UniProt P0AG82 26-346, looked up, variant A225C)
Phosphate-binding protein PstS: EASLTGAGATFPAPVYAKWADTYQKETGNKVNYQGIGSSGGVKQIIANTVDFGASDAPLSDEKLAQEGLFQFPTVIGGVVLAVNIPGLKSGELVLDGKTLGDIYLGKIKKWDDEAIAKLNPGLKLPSQNIAVVRRADGSGTSFVFTSYLAKVNEEWKNNVGTGSTVKWPIGLGGKGNDGIAAFVQRLPGAIGYVEYAYAKQNNLAYTKLISADGKPVSPTEENFCNAAKGADWSKTFAQDLTNQKGEDAWPITSTTFILIHKDQKKPEQGTEVLKFFDWAYKTGAKQANDLDYASLPDSVVEQVRAAWKTNIKDSSGKPLY
modifications: JPW4039 label
B17: phosphate BP N226C JPW4045 (conjugate, UniProt P0AG82 26-346, looked up, variant N226C)
Phosphate-binding protein PstS: B16 Phosphate-binding protein PstS with C225A, N226C
modifications: JPW4045 dye conjugate
B18: phosphate BP S39C NBD (conjugate, UniProt P0AG82 26-346, looked up, variant S39C)
Phosphate-binding protein PstS: B16 Phosphate-binding protein PstS with S39C, C225A
modifications: NBD dye conjugate
B19: phosphate BP N226C JPW4042 (conjugate, UniProt P0AG82 26-346, looked up, variant N226C)
Phosphate-binding protein PstS: B16 Phosphate-binding protein PstS with C225A, N226C
modifications: JPW4042 dye conjugate
B20: phosphate BP A225C JPW4045 (conjugate, UniProt P0AG82 26-346, looked up, variant A225C)
Phosphate-binding protein PstS: B16 Phosphate-binding protein PstS
modifications: JPW4045 label
B21: phosphate BP A225C NBD (conjugate, UniProt P0AG82 26-346, looked up, variant A225C)
Phosphate-binding protein PstS: B16 Phosphate-binding protein PstS
modifications: NBD conjugate
B22: phosphate BP S39C JPW4045 (conjugate, UniProt P0AG82 26-346, looked up, variant S39C)
Phosphate-binding protein PstS: B16 Phosphate-binding protein PstS with S39C, C225A
modifications: JPW4045 dye conjugate
B23: phosphate BP A225C JPW4042 (conjugate, UniProt P0AG82 26-346, looked up, variant A225C)
Phosphate-binding protein PstS: B16 Phosphate-binding protein PstS
modifications: JPW4042 dye conjugate
B24: phosphate BP S39C JPW4042 (conjugate, UniProt P0AG82 26-346, looked up, variant S39C)
Phosphate-binding protein PstS: B16 Phosphate-binding protein PstS with S39C, C225A
modifications: JPW4042 dye label
B25: phosphate BP N223C Fluorescein (conjugate, UniProt P0AG82 26-346, looked up, variant N223C)
Phosphate-binding protein PstS: B16 Phosphate-binding protein PstS with N223C, C225A
modifications: fluorescein conjugate
B26: phosphate BP A225C Acrylodan (conjugate, UniProt P0AG82 26-346, looked up, variant A225C)
Phosphate-binding protein PstS: B16 Phosphate-binding protein PstS
modifications: acrylodan conjugate
B27: phosphate BP A225C Fluorescein (conjugate, UniProt P0AG82 26-346, looked up, variant A225C)
Phosphate-binding protein PstS: B16 Phosphate-binding protein PstS
modifications: fluorescein label
B28: phosphate BP S39C Acrylodan (conjugate, UniProt P0AG82 26-346, looked up, variant S39C)
Phosphate-binding protein PstS: B16 Phosphate-binding protein PstS with S39C, C225A
modifications: acrylodan conjugate
B29: phosphate BP S39C Fluorescein (conjugate, UniProt P0AG82 26-346, looked up, variant S39C)
Phosphate-binding protein PstS: B16 Phosphate-binding protein PstS with S39C, C225A
modifications: fluorescein conjugate
B30: phosphate BP S39C JPW4039 (conjugate, UniProt P0AG82 26-346, looked up, variant S39C)
Phosphate-binding protein PstS: B16 Phosphate-binding protein PstS with S39C, C225A
modifications: JPW4039 dye conjugate
B31: phosphate BP N226C JPW4039 (conjugate, UniProt P0AG82 26-346, looked up, variant N226C)
Phosphate-binding protein PstS: B16 Phosphate-binding protein PstS with C225A, N226C
modifications: JPW4039 dye conjugate

Assay: Fluorescence emission spectra without and with saturating ligand (wavelength shift, ΔIstd, ΔRmax)
Parameters: key to ΔIstd: intensity change at λstd normalized to average intensity; key to ΔRmax: ratio change of two emission band areas, unbound vs saturated
Conditions: standard intensity change, unbound vs ligand-saturated
Protocol: Fluorimetry. All measurements were conducted with an SLM Aminco-Bowman series 2 fluorimeter, with sample stirring at 25° C. Fluorescence emission spectra were acquired with excitation and emission slit widths of 4 and 8 nm, respectively. Photomultiplier tube potential was maintained between 400 and 800 volts. Protein concentrations were in the range of 50 to 1000 nM. Fluorophore-specific excitation was at the following approximate wavelengths: tryptophan, 290 nm; acrylodan, 390 nm; fluorescein, 485 nm; pyrene, 340 nm; NBD and NBDE, 490 nm; JPW4039, 485 nm; JPW4042, 470 nm; JPW4045, 470 nm.
Assessment of fluorescent biosensor function. Fluorescence emission spectra of bPBP-fluorophore conjugates were recorded in the absence and presence of saturating ligand concentrations. Spectral changes were characterized by four parameters: wavelength shift (the difference between the wavelengths of emission maximum in the unbound and ligand-saturated states), direction of intensity change (increase or decrease in intensity at the wavelengths of maximum emission in the two states), standard intensity change (ΔIstd), and standard ratiometric change (ΔR). ΔIstd is defined as the normalized intensity change relative to the average intensity, determined at the wavelength mid-point between the two emission maxima:
[formula] where λstd=(λmax, unbound+λmax, saturated)/2 and I1, I2 are the fluorescence intensities at λstd of each spectrum respectively (FIG. 4A). ΔR is defined in terms of two emission bands, A1 ([λ1, λ2]) and A2 ([λ3, λ4]) (FIG. 4B):
[formula] where ^∘A1, […] the areas in the absence of ligand, and ^∞A1, ^∞A2 the areas in the presence of saturating ligand. A computer program was used to enumerate ΔR for all possible pairs of wavelength bands in the two spectra, to identify the optimal sensing condition, defined as the maximum value of ΔR. Adjustable parameters of the algorithm, and their values used for ΔRmax quantities reported here, are: step size (2 nm), step width (10 nm), minimum integration area limit (fraction of total: 0.1), and maximum integration area limit (fraction of total: 1).

| Molecule | ΔIstd |
| --- | --- |
| B1 | 0.37 |
| B2 | 0.04 |
| B3 | 0.08 |
| B4 | 0.25 |
| B5 | 0.06 |
| B6 | 0.55 |
| B7 | 0.28 |
| B8 | 0.00 |
| B9 | 0.06 |
| B10 | 0.12 |
| B11 | 0.02 |
| B12 | 0.13 |
| B13 | 0.01 |
| B14 | 0.44 |
| B15 | 0.00 |
| B16 | 0.36 |

| Molecule | ΔIstd |
| --- | --- |
| B17 | 0.53 |
| B18 | 0.18 |
| B19 | 0.29 |
| B20 | 0.02 |
| B21 | 0.81 |
| B22 | 0.18 |
| B23 | 0.30 |
| B24 | 0.01 |
| B25 | 0.06 |
| B26 | 0.08 |
| B27 | 0.01 |
| B28 | 0.10 |
| B29 | 0.03 |
| B30 | 0.36 |
| B31 | 0.26 |

Same assay, conditions: standard ratiometric change, unbound vs ligand-saturated

| Molecule | ΔRmax |
| --- | --- |
| B1 | 1.29 |
| B2 | 0.77 |
| B3 | 0.29 |
| B4 | 1.70 |
| B5 | 0.27 |
| B6 | 3.58 |
| B7 | 1.63 |
| B8 | 0.37 |
| B9 | 0.99 |
| B10 | 1.31 |
| B11 | 0.29 |
| B12 | 0.36 |
| B13 | 1.18 |
| B14 | 0.34 |
| B15 | 1.67 |
| B16 | 2.86 |

| Molecule | ΔRmax |
| --- | --- |
| B17 | 3.83 |
| B18 | 0.57 |
| B19 | 2.05 |
| B20 | 0.82 |
| B21 | 1.21 |
| B22 | 4.13 |
| B23 | 1.32 |
| B24 | 0.15 |
| B25 | 0.01 |
| B26 | 1.95 |
| B27 | 0.97 |
| B28 | 0.80 |
| B29 | 0.21 |
| B30 | 3.15 |
| B31 | 2.94 |

Source: patent US9625458B2, “Biosensor” (priority 2002, dated 2017)
